Data published in US20100291048A1.
Each block holds one substance with its values, some of them ahead of it.

Columns and labels:
ZFN 12257 (synthetic) = assay: cell_activity; settings: K562, pair with 12329 (pairing inferred from adjacent sites), Surveyor assay
ZFN 12270 (synthetic) = assay: cell_activity; settings: K562, pair with 12273, Surveyor assay; 34.6% in enriched SupT1 pool, >40% in primary CD4 T cells
HLA Class I [1] = assay: flow cytometry on parental SupT1 cells, PE anti-mouse IgG secondary
HLA Class I [2] = assay: flow cytometry on SupT1 clone B13, PE anti-mouse IgG secondary
HLA Class I [3] = assay: flow cytometry on SupT1 clone B4, PE anti-mouse IgG secondary
HLA Class I [4] = assay: flow cytometry on SupT1 clone A66, PE anti-mouse IgG secondary
ZFN 12281 (synthetic) = assay: cell_activity; settings: K562, pair with 12290 (pairing inferred from adjacent sites), Surveyor assay
ZFN 12290 (synthetic) = assay: cell_activity; settings: K562, pair with 12281 (pairing inferred from adjacent sites), Surveyor assay
ZFN 12273 (synthetic) = assay: cell_activity; settings: K562, pair with 12270, Surveyor assay; 34.6% in enriched SupT1 pool, >40% in primary CD4 T cells
ZFN 12329 (synthetic) = assay: cell_activity; settings: K562, pair with 12257 (pairing inferred from adjacent sites), Surveyor assay
[5] = target: CXCR4 isoform b, WT (352 a.a.) (human) (UniProt P61073); assay: flow cytometry on parental SupT1 cells, PE anti-mouse IgG secondary
UniProt P61073, sequence (P61073 whole entry, canonical isoform): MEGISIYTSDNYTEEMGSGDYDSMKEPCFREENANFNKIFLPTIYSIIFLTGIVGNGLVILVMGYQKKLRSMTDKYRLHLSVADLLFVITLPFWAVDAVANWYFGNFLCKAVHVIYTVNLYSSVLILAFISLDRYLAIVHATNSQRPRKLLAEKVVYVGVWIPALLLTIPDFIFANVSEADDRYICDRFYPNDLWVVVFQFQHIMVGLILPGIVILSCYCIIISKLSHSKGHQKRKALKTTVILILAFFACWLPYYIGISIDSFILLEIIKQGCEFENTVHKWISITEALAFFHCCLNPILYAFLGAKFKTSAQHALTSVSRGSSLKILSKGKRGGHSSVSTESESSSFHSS

Substance: AGTCAGAGGCCAAGGAAGCTGTTGGCTG (double strand) [CXCR4 12257 target]
activity (ZFN 12257 (synthetic)): > 20 % NHEJ

Substance: ATGACTTGTGGGTGGTTGTGTTCCAGTT (double strand) [CXCR4 12270 target]
activity (ZFN 12270 (synthetic)): > 20 % NHEJ

Mean Channel Fluorescence (HLA Class I [1]): 83 | Mean Channel Fluorescence (HLA Class I [2]): 170 | Mean Channel Fluorescence (HLA Class I [3]): 152 | Mean Channel Fluorescence (HLA Class I [4]): 189
Substance: Anti-HLA Cl-I W6/32 (antibody)

Substance: CAGTTGATGCCGTGGCAAACTGGTACTT (double strand) [CXCR4 12281 target]
activity (ZFN 12281 (synthetic)): > 20 % NHEJ

Substance: CCAGAAGGGAAGCGTGATGACAAAGAGG (double strand) [CXCR4 12290 target]
activity (ZFN 12290 (synthetic)): > 20 % NHEJ

Substance: GGGTAGAAGCGGTCACAGATATATCTGT (double strand) [CXCR4 12273 target]
activity (ZFN 12273 (synthetic)): > 20 % NHEJ

Substance: TTGGTGGCGTGGACGATGGCCAGGTAGC (double strand) [CXCR4 12329 target]
activity (ZFN 12329 (synthetic)): > 20 % NHEJ

Mean Channel Fluorescence [5]: 136
Substance: anti-CXCR4 NT (4G10) (antibody)

Mean Channel Fluorescence [5]: 35
Substance: anti-CXCR4 mAb (12G5) (antibody)
